Positions count from the first letter of the chain named. Blank lines part the entries; values can stand above or below the binder they belong to.
Experiments:
human IL-2Rβ [1] = molecular target: T1, human IL-2Rβ (human, UniProt P14784 27-240, limits assumed); assay: SPR, P.E. off-rate
T1 construct: recombinant protein, coated or immobilised; also called hu IL-2R; IL-2R beta
T1 sequence: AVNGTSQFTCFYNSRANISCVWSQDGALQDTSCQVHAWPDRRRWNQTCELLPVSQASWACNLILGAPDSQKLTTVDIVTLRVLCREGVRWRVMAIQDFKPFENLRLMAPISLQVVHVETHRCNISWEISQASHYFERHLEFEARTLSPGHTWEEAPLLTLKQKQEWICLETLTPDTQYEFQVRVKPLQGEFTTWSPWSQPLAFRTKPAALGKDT
Protocol: SPR was performed to determine dissociation rates using Biacore 3000 instrument (GE Healthcare). Briefly, human and mouse IL-2R proteins were immobilized on carboxylmethyl dextran sensor chip (CM5) at approximately 2500 RUs using amine coupling in acetate buffer (GE Healthcare). The VHH-containing P.E. were loaded with a flow rate of 30 uL/min and the off-rates were measured over a 120s period.

human IL-2Rβ [2] = molecular target: T1, human IL-2Rβ; assay: P.E. ELISA, coated protein
Protocol: In a binding ELISA, human or mouse IL-2Rα, IL-2Rβ and IL-2Rγ proteins were coated directly on maxisorp microtiter plates overnight at 4° C. Free binding sites were blocked using 4% Marvel in PBS for 1 hour. Next, 1:5 dilution of P.E. in 1% Marvel/PBS were added to wells and incubated for 1 hour. […] Binding specificity was determined based on O.D. at 450 nm values compared to negative controls.

koff (human IL-2Rβ [1]): 0.000374 s⁻¹
P.E. binding ELISA OD (human IL-2Rβ [2]): 0.298 OD450 nm
B1: FJ1427_P035MP02D06 (VHH)
VHH: EVQLVESGGGLVQTGGSLRLSCAASGSQFINDVMGWYRQVPGKQRELVADMDDTGSTKYADSVKGRFTILRDSVKNTAYLQMSNLKPEDTGVYYCKAGLWIKGRHSDYWGQGTQVTVSS
notes: soluble VHH in periplasmic extract; also called clone nr; 140

koff (human IL-2Rβ [1]): 0.00628 s⁻¹
P.E. binding ELISA OD (human IL-2Rβ [2]): 0.146 OD450 nm
B2: FJ1427 P035MP03A12 (VHH)
VHH: EVQLVESGGGLVQAGGSLRLSCAASGRTFSINAMGWFRQAPGKEREFVAAISRSGGSTVYVDGVKGRFTISRDNAKNTVYLQMNSLEPEDTAVYYCAATMAVGWTTRWRTADFDSWGQGTQVTVSS
notes: soluble VHH in periplasmic extract; also called 21-MP03A12; clone nr

koff (human IL-2Rβ [1]): 0.00231 s⁻¹
P.E. binding ELISA OD (human IL-2Rβ [2]): 0.731 OD450 nm
B3: FJ1427_P035MP02C07 (VHH)
VHH: B2 VHH with E1Q, A33T, G56D, G63S, S85T, E87K, A98T, M100V, R109S, A111I
notes: soluble VHH in periplasmic extract; also called clone nr

koff (human IL-2Rβ [1]): 0.00022 s⁻¹
P.E. binding ELISA OD (human IL-2Rβ [2]): 0.811 OD450 nm
B4: FJ1427_P035MP02B09 (VHH)
VHH: EVQLVESGGGLVQAGGSLRLSCAASGRTFSTTEMGWFRQAPGKEREFVAAITWTGRGTMYAESVEGRFTISRENAKNMVYLQMNSLKPEDTAIYYCAAARRGRAAVRSEGGYDFWGQGTQVTVSS
notes: as for B3

koff (human IL-2Rβ [1]): 0.000982 s⁻¹
P.E. binding ELISA OD (human IL-2Rβ [2]): 0.747 OD450 nm
B5: FJ1427_P035MP02D07 (VHH)
VHH: B4 VHH with T28S, F29L, T54S, T69A, I70V, M78T
notes: as for B3

koff (human IL-2Rβ [1]): 0.000307 s⁻¹
P.E. binding ELISA OD (human IL-2Rβ [2]): 0.974 OD450 nm
B6: FJ1427_P035MP02G10 (VHH)
VHH: B4 VHH with E1Q
notes: as for B3

koff (human IL-2Rβ [1]): 0.000293 s⁻¹
P.E. binding ELISA OD (human IL-2Rβ [2]): 0.891 OD450 nm
B7: FJ1427_P035MP02A11 (VHH)
VHH: B4 VHH with V121A
notes: as for B3

koff (human IL-2Rβ [1]): 0.00153 s⁻¹
P.E. binding ELISA OD (human IL-2Rβ [2]): 0.614 OD450 nm
B8: FJ1427_P035MP02F08 (VHH)
VHH: QVQLVESGGGLVQAGGSLRLSCAASGSIFSLNTMGWFRQAPGKEREFVAAISRSGGSATYGDSVKGRFTISTNNAKTTVYLQMNSLKPDDTAVYSCAASAAVGWTTRWSTIDFDSWGQGTQVTVSS
notes: as for B3

koff (human IL-2Rβ [1]): 0.00211 s⁻¹
P.E. binding ELISA OD (human IL-2Rβ [2]): 0.791 OD450 nm
B9: FJ1427 P035MP02A07 (VHH)
VHH: QVQLVESGGGLVQAGGSLRLSCAVSGDVFVRYTMAWFRQAPGKEREFVATVTDSGRTTEYVDSVKGRFTVSRDNAKNTVYLQMNNLKPEDTAVYYCAANTDYFRIRSLDANTWGQGTQVTVSS
notes: as for B3

koff (human IL-2Rβ [1]): 0.000433 s⁻¹
P.E. binding ELISA OD (human IL-2Rβ [2]): 1.57 OD450 nm
B10: FJ1427 P035MP02C11 (VHH)
VHH: B9 VHH with T50S, N85S, R104Q, D109R
notes: as for B3

koff (human IL-2Rβ [1]): 0.000846 s⁻¹
P.E. binding ELISA OD (human IL-2Rβ [2]): 0.45 OD450 nm
B11: FJ1427_P035MP02E08 (VHH)
VHH: B9 VHH with Q1E, A23V, T50V, R104Q, L108V, A110N, T112A
notes: as for B3

koff (human IL-2Rβ [1]): 0.00164 s⁻¹
P.E. binding ELISA OD (human IL-2Rβ [2]): 0.848 OD450 nm
B12: FJ1427 P035MP02F07 (VHH)
VHH: B9 VHH with V24A, T50S, E59D, V93R, R104Q
notes: soluble VHH in periplasmic extract; also called clone nr; 150

koff (human IL-2Rβ [1]): 0.00178 s⁻¹
P.E. binding ELISA OD (human IL-2Rβ [2]): 0.441 OD450 nm
B13: FJ1427 P035MP02G08 (VHH)
VHH: B9 VHH with A23T, T50S, D62H, K65R
notes: as for B3

koff (human IL-2Rβ [1]): 0.000498 s⁻¹
P.E. binding ELISA OD (human IL-2Rβ [2]): 1.47 OD450 nm
B14: FJ1427 P035MP02D09 (VHH)
VHH: B9 VHH with S21A, V24L, T50S, E59D, D62A, K65Q, A75N, N85S, R104Q, A110R
notes: as for B3

koff (human IL-2Rβ [1]): 0.000757 s⁻¹
P.E. binding ELISA OD (human IL-2Rβ [2]): 0.435 OD450 nm
B15: FJ1427 P035MP02H10 (VHH)
VHH: B9 VHH with Q1E, V24A, T50S, E59D, R104Q, R106K, A110R
notes: as for B3

koff (human IL-2Rβ [1]): 0.00105 s⁻¹
P.E. binding ELISA OD (human IL-2Rβ [2]): 0.54 OD450 nm
B16: FJ1427_P035MP06F03 (VHH)
VHH: B9 VHH with T50S, E59D, D62H, R104Q, R106K
notes: soluble VHH in periplasmic extract; also called 23-MP06F03; clone nr; 502

koff (human IL-2Rβ [1]): 0.000788 s⁻¹
P.E. binding ELISA OD (human IL-2Rβ [2]): 0.595 OD450 nm
B17: FJ1427_P035MP02F10 (VHH)
VHH: B9 VHH with Q1E, A23V, T50V, R104Q, L108V, A110N, T112A
notes: as for B3

koff (human IL-2Rβ [1]): 0.00198 s⁻¹
P.E. binding ELISA OD (human IL-2Rβ [2]): 1.79 OD450 nm
B18: FJ1427_P035MP02A08 (VHH)
VHH: B9 VHH with Q1E, A23T
notes: as for B3

Source: patent US20240409645A1 (DUALYX, published 2024)
